IntAct's records for PubMed 25487150

Experiments:
[1] = target: pp1g_human PPP1CC (UniProt P36873)
[2] = target: pp1b_human PPP1CB (UniProt P62140)
[3] = target: pp1a_human PPP1CA (UniProt P62136)
[4] = target: pp11_schpo dis2 (UniProt P13681)
[5] = target: pp11_schpo dis2 (UniProt P13681); remark: listed apart in the source

Chain of pp11_schpo dis2 (P13681 whole entry): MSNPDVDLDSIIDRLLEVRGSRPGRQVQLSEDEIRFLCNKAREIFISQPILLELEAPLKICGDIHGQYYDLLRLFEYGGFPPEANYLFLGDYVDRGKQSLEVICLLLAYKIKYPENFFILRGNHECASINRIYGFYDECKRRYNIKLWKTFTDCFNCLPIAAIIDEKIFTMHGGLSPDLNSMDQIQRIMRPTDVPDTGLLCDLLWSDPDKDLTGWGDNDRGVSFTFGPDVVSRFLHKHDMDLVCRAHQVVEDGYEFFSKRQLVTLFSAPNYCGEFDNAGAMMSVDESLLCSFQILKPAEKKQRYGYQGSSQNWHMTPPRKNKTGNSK
Chain of Serine/threonine-protein phosphatase 2A 56 kDa regulatory subunit delta 1 isoform (Schizosaccharomyces pombe (strain ATCC 38366 / 972)), Q10428 G367V (Q10428 whole entry G367V, canonical isoform): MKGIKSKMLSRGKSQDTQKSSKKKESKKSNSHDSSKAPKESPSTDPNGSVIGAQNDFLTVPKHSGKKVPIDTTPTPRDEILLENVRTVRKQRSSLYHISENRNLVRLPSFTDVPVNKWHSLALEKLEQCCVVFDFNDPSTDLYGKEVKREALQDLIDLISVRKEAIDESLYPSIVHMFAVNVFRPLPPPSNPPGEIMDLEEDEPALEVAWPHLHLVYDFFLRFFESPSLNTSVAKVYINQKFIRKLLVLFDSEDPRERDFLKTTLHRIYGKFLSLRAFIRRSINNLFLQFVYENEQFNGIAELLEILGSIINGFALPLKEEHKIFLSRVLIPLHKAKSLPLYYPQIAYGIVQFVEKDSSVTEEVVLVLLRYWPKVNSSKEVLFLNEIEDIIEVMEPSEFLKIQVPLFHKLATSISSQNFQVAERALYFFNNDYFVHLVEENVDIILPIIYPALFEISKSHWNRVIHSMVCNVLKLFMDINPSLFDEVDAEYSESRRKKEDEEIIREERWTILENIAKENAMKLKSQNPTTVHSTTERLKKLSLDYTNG
Chain of Serine/threonine-protein phosphatase 2A 56 kDa regulatory subunit delta 1 isoform (Schizosaccharomyces pombe (strain ATCC 38366 / 972)), Q10428 K379A;V381A;F383A (Q10428 whole entry K379A/V381A/F383A, canonical isoform): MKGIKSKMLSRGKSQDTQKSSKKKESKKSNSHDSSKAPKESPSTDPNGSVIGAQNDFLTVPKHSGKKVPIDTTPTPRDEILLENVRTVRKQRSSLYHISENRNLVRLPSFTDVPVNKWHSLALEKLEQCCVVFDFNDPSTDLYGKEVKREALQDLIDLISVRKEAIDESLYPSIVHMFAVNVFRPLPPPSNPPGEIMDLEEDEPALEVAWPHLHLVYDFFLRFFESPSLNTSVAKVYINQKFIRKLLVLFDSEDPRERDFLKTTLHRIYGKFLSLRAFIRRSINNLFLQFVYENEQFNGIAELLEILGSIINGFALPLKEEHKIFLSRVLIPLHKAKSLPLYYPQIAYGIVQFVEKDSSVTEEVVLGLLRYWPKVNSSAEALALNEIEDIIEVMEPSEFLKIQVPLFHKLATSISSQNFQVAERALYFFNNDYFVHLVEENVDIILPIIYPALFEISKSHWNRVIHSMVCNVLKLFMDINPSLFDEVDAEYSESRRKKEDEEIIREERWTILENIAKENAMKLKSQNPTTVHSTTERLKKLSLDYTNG
Chain of Serine/threonine-protein phosphatase 2A 56 kDa regulatory subunit delta 1 isoform (Schizosaccharomyces pombe (strain ATCC 38366 / 972)), Q10428 G367A (Q10428 whole entry G367A, canonical isoform): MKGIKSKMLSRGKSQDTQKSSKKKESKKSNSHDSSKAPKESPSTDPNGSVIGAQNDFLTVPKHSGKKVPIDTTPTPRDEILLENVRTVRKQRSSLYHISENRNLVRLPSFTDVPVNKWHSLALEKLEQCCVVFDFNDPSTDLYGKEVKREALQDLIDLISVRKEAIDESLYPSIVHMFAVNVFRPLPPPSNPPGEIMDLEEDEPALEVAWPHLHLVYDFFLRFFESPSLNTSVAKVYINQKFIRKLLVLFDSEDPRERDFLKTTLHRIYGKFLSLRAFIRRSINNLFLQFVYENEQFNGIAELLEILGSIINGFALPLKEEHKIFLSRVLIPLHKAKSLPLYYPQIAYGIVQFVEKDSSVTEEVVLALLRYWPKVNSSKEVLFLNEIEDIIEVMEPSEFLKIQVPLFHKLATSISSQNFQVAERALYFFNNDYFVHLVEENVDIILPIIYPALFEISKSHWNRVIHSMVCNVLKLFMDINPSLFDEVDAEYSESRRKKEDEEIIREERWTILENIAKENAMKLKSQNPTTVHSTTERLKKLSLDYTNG
Chain of Serine/threonine-protein phosphatase 2A 56 kDa regulatory subunit delta 1 isoform (Schizosaccharomyces pombe (strain ATCC 38366 / 972)), Q10428 G367A;V381A (Q10428 whole entry G367A/V381A, canonical isoform): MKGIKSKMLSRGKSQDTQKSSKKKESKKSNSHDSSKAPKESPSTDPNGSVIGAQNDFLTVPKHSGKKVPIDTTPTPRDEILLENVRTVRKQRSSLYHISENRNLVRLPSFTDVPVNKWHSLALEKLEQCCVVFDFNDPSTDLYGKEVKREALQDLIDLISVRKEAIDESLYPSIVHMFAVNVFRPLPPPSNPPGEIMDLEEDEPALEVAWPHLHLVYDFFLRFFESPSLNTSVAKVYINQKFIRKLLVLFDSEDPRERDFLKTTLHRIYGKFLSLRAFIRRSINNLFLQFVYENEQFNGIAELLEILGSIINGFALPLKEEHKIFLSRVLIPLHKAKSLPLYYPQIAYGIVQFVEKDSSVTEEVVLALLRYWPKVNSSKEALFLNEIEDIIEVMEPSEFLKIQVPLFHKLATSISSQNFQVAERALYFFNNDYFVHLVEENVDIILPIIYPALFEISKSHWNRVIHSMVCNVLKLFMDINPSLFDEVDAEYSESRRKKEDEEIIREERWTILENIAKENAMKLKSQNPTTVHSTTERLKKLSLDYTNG
Chain of pp1b_human PPP1CB (P62140 whole entry): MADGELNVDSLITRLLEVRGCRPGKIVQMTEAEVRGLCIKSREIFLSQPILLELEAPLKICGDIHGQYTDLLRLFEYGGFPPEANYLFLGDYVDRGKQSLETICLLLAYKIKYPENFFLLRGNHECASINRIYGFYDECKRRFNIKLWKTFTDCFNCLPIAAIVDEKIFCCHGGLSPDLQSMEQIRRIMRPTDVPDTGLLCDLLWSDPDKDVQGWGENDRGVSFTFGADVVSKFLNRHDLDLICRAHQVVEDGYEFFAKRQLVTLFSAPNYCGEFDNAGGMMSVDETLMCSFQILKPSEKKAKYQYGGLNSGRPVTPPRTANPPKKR
Chain of Serine/threonine-protein phosphatase 2A 56 kDa regulatory subunit delta 1 isoform (Schizosaccharomyces pombe (strain ATCC 38366 / 972)), Q10428 S378D (Q10428 whole entry S378D, canonical isoform): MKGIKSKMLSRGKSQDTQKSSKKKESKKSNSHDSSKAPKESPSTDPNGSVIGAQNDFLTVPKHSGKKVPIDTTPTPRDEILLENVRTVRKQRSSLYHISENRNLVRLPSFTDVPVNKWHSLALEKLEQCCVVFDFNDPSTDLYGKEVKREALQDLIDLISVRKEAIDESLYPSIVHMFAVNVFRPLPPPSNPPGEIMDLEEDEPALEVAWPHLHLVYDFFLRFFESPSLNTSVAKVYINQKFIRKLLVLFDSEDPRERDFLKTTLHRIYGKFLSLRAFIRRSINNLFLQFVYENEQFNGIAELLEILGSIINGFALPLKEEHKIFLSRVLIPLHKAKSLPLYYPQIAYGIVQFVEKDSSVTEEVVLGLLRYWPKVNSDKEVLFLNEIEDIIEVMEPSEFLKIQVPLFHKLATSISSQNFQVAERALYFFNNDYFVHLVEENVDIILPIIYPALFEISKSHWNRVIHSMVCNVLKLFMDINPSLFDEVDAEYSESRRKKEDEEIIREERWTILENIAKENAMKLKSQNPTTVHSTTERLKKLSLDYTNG
Chain of pp1a_human PPP1CA (P62136 whole entry): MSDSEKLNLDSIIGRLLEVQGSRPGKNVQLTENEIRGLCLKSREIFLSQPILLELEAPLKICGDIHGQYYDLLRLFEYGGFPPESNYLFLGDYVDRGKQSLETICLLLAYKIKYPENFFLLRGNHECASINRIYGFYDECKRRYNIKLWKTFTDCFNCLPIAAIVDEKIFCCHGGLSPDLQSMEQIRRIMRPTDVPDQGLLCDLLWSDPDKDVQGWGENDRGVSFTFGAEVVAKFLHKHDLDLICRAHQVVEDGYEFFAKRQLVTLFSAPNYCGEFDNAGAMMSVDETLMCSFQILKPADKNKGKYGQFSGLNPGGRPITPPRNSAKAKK
Chain of Serine/threonine-protein phosphatase 2A 56 kDa regulatory subunit delta 1 isoform (Schizosaccharomyces pombe (strain ATCC 38366 / 972)), Q10428 G367A;K379A;V381A;F383A (Q10428 whole entry G367A/K379A/V381A/F383A, canonical isoform): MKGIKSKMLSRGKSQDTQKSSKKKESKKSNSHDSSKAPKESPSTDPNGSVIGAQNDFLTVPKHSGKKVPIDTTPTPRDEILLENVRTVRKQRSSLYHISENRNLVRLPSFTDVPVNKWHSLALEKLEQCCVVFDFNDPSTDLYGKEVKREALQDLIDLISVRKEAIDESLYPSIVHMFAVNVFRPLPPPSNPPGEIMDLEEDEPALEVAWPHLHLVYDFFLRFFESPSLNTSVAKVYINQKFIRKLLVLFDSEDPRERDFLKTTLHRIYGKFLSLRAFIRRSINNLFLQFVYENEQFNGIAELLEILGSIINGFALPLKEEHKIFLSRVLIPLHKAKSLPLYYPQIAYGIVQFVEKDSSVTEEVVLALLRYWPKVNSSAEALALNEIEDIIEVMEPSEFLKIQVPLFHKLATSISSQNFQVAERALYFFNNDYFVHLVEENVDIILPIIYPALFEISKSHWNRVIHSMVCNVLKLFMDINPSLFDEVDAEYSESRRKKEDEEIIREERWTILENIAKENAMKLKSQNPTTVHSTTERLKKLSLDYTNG
Chain of pp1g_human PPP1CC (P36873 whole entry, looked up): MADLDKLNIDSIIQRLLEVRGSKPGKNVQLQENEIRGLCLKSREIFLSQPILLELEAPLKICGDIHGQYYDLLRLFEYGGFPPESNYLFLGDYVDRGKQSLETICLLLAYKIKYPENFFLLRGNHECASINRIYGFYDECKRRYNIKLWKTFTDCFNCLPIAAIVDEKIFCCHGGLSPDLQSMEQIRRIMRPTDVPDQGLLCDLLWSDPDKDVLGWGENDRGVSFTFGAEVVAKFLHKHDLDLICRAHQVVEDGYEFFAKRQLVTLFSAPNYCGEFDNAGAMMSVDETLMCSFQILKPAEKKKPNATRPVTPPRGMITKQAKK

Substance | effect of a mutation on the interaction [4] | effect of a mutation on the interaction [5] | other results
Serine/threonine-protein phosphatase 2A 56 kDa regulatory subunit gamma isoform (Homo sapiens) (from UniProt Q13362) L289A;L290A;V302A;F304A | – | – | effect of a mutation on the interaction [1]: disrupting interaction strength; effect of a mutation on the interaction [2]: disrupting interaction strength; effect of a mutation on the interaction [3]: disrupting interaction strength
Serine/threonine-protein phosphatase 2A 56 kDa regulatory subunit delta 1 isoform (Schizosaccharomyces pombe (strain ATCC 38366 / 972)), Q10428 G367V | decreasing interaction strength | disrupting interaction strength | –
Serine/threonine-protein phosphatase 2A 56 kDa regulatory subunit delta 1 isoform (Schizosaccharomyces pombe (strain ATCC 38366 / 972)), Q10428 G367A | decreasing interaction strength | disrupting interaction strength | –
Serine/threonine-protein phosphatase 2A 56 kDa regulatory subunit delta 1 isoform (Schizosaccharomyces pombe (strain ATCC 38366 / 972)), Q10428 G367V;V381A | decreasing interaction strength | – | –
Serine/threonine-protein phosphatase 2A 56 kDa regulatory subunit delta 1 isoform (Schizosaccharomyces pombe (strain ATCC 38366 / 972)), Q10428 G367A;K379A;V381A;F383A | disrupting interaction strength | – | –
Serine/threonine-protein phosphatase 2A 56 kDa regulatory subunit delta 1 isoform (Schizosaccharomyces pombe (strain ATCC 38366 / 972)), Q10428 G367V;K379A;V381A;F383A | disrupting interaction strength | – | –
Serine/threonine-protein phosphatase 2A 56 kDa regulatory subunit delta 1 isoform (Schizosaccharomyces pombe (strain ATCC 38366 / 972)), Q10428 G367A;V381A | decreasing interaction strength | disrupting interaction strength | –
Serine/threonine-protein phosphatase 2A 56 kDa regulatory subunit delta 1 isoform (Schizosaccharomyces pombe (strain ATCC 38366 / 972)), Q10428 S378D | disrupting interaction strength | – | –
Serine/threonine-protein phosphatase 2A 56 kDa regulatory subunit delta 1 isoform (Schizosaccharomyces pombe (strain ATCC 38366 / 972)), Q10428 K379A;V381A;F383A | decreasing interaction strength | disrupting interaction strength | –
